Each block holds one binder with its values, some of them ahead of it.
Experiments:
[1] = target: T1, biotinylated Fc-PDL1 (UniProt Q9NZQ7 19-238, limits assumed, biotinylated (site not stated)); assay: receptor blocking ELISA, biotinylated Fc-PDL1 binding to PD1-coated plates, streptavidin-HRP
T1 construct: The order of the parts follows the printed name; not shown: Fc portion
Source text: (§1) In both cases, binding was detected by using streptavidin linked horse radish peroxidase.

[2] = target: PDL1 coated on ELISA plates (UniProt Q9NZQ7 19-238, limits assumed); assay: receptor blocking ELISA, biotinylated Fc-PD1 binding to PDL1-coated plates, streptavidin-HRP
Sequence of PDL1 coated on ELISA plates (Q9NZQ7 19-238 limits assumed): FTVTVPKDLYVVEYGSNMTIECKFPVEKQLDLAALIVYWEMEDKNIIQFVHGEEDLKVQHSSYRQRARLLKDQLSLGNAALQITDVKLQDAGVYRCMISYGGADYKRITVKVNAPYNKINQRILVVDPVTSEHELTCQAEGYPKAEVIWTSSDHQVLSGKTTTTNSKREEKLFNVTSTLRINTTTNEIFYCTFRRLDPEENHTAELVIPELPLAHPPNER
Source text: as §1

[3] = target: T2, human PDL1 transgenically expressed on DLD1 cells (human, UniProt Q9NZQ7 19-290); assay: FACS on DLD1 cells expressing human PDL1, fluorescent anti-human-IgG detection; mean, SD 297
T2 construct: whole, on cells; also called cell surface PDL1; PDLL
T2 sequence (Q9NZQ7 19-290): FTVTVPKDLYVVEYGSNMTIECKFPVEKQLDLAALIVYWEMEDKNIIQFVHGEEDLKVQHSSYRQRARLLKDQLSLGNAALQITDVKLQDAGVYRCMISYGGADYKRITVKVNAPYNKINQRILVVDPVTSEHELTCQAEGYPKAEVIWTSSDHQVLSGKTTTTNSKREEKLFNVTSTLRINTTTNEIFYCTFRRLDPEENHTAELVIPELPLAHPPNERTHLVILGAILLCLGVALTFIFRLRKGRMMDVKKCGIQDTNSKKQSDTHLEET
Description: To test the ability of the proteins to bind cell surface PDL1, we used DLD1 cells expressing transgenically expressed human PDLL. […] Briefly, 10⁵ cells were incubated with different concentrations of the protein for 30 minutes at 4° C. Cells were washed with PBS and incubated with a fluorescent, anti-human-IgG antibody for 30 minutes at 4° C. Cells were again washed with PBS and binding was detected by FACS.

T1 sequence (Q9NZQ7 19-238 limits assumed): as the sequence (Q9NZQ7 19-238 limits assumed) above

IC50 [1]: 92.7 nM | IC50 [2]: 16.6 nM
B1: E3 anti-PDL1 antibody (antibody, human IgG1, kappa, V domains shown)
VH: QIQLVQSGAEVKKPGSSVKVSCKASGGTFSSYAISWVRQAPGQGLEWMGGIIPIFGTANYAQKFQGRVTITADKSTSTAYMELSSLRSEDTAVYYCAGGGAVADNSYWGQGTLVTVSS
VL: DIRMTQSPSSLSASVGDRVTITCRASQGIRNDLGWYQQKPGKAPKLLIYAASSLQSGVPSRFSGSGSGTDFTLTISSLQPEDFATYYCLQDYNYPRTFGQGTKVEIKR

EC50 [3]: 1.96 nM | IC50 [1]: 1.26 nM | IC50 [2]: 1.53 nM
B2: E1 anti-PDL1 antibody (antibody, human IgG1, kappa, V domains shown)
VH: QIQLVQSGAEVKMPGASVTISCEASGYNFISYYIHWVRQAPGQGLEWMGFVVPSGGAAGYTQKFQGRLTVTRDTSTSTVYMDLNSLTSDDTAVYYCVREMSGGWFDFWGQGTLVTVSS
VL: DIVMTQSPSSLSASVGDRVTITCRASQGIRNDLGWYQQKPGKAPKLLIYAASTLQSGVPSRFSGSGSGTDFTLTISSLQAEDVAVYYCQQYYSTPLTFGPGTKVDIKR
notes: The full-length entries begin with the secretory leader; The constant region is human IgG1 type; also called parental antibody

IC50 [1]: 1.39 nM | IC50 [2]: 0.8 nM
B3: B2 anti-PDL1 antibody (antibody, human IgG1, lambda, V domains shown)
VH: EVQLVESGGGLVQPGGSLRLSCAASGFTFSDYDMIWVRQAPGKGLEWVAVISYDGSNKYYADSVKGRFTISRDNSKNTLYLQMNSLRAEDTAVYYCAKEFFGAFDIWGQGTMVTVSS
VL: SSELTQDPAVSVALGQTVTITCQGDSLNYYYANWFQLKPGQAPVLVLFGKNNRPSGIPDRFSGSYSGSTASLTITGAQAEDDADYYCNSRDSGGNPWVFGGGTKLTVLG
